In article PMC8744557, “Engineering the Catalytic Properties of Two-Domain Laccase from Streptomyces griseoflavus Ac-993” (International Journal of Molecular Sciences, 2021) one finds Km, kcat and kcat/Km data, which are given here for six proteins.

Substrate in series [1]: COc1cccc(OC)c1O
As to the kind of experiment: purified protein. As to conditions: 50 mM Britton-Robinson buffer, O2 co-substrate. It is filed as biochemical, Streptomyces griseoflavus.

Substrate in series [2]: CCn1c(=NN=c2sc3cc(S(=O)(=O)O)ccc3n2CC)sc2cc(S(=O)(=O)O)ccc21
As to the kind of experiment: purified protein. Format: biochemical, Streptomyces griseoflavus. To be noted: 50 mM Britton-Robinson buffer, O2 co-substrate.

B1: SgfSL (SgfSLwt) (Streptomyces griseoflavus) (protein)
chain: AGAAPAGGEVRRVTMYAERLAGGQMGYGLEKGKASIPGPLIELNEGDTLHVEFENTMDVPVSLHVHGLDYEISSDGTKQNKSHVEPGGTRTYTWRTHEPGRRADGTWRAGSAGYWHYHDHVVGTEHGTGGIRNGLYGPVIVRRKGDVLPDATHTIVFNDMTINNRPAHTGPNFEATVGDRVEIVMITHGEYYHTFHMHGHRWADNRTGMLTGPDDPSQVIDNKICGPADSFGFQIIAGEGVGAGAWMYHCHVQSHSDMGMVGLFLVKKPDGTIPGYDPQEHAH
notes: pET32-Xa/Lic, thioredoxin/His tail cut with factor Xa; E. coli BL21(DE3)/Rosetta; homotrimer; primers encode N-terminus AGAAPAGG and C-terminus PQEHAH
For orientation: Km means the substrate concentration at which the rate is half of its maximum. As usually defined, the kcat is the number of substrate molecules converted per active site and unit of time at saturation. By kcat/Km is commonly meant the turnover number divided by the Michaelis constant. For the protein B1, in the series “purified protein [1]” (pH 9.0, 30 °C), the Km is 320 ± 80 µM, the kcat came out at 0.35 ± 0.02 s⁻¹ and the kcat/Km turned out to be 1090 M⁻¹ s⁻¹. Besides, in the series “purified protein [2]” (pH 4.0, 30 °C), the Km turned out to be 360 ± 70 µM, the kcat is 15 ± 1 s⁻¹ and the kcat/Km stood at 42000 M⁻¹ s⁻¹.

B2: SgfSL (SgfSLwt) (Streptomyces griseoflavus; H165A/M199G) (protein)
chain: AGAAPAGGEVRRVTMYAERLAGGQMGYGLEKGKASIPGPLIELNEGDTLHVEFENTMDVPVSLHVHGLDYEISSDGTKQNKSHVEPGGTRTYTWRTHEPGRRADGTWRAGSAGYWHYHDHVVGTEAGTGGIRNGLYGPVIVRRKGDVLPDATHTIVFNDGTINNRPAHTGPNFEATVGDRVEIVMITHGEYYHTFHMHGHRWADNRTGMLTGPDDPSQVIDNKICGPADSFGFQIIAGEGVGAGAWMYHCHVQSHSDMGMVGLFLVKKPDGTIPGYDPQEHAH
notes: as for B1
For the protein B2, in the series “purified protein [1]” (pH 6.5, 30 °C), the Km was determined as 280 ± 50 µM, the kcat is 0.31 ± 0.01 s⁻¹ and the kcat/Km worked out at 1110 M⁻¹ s⁻¹. Further, in the series “purified protein [2]” (pH 3.5, 30 °C), the Km was 90 ± 10 µM, the kcat was found to be 9 s⁻¹ and the kcat/Km is 95000 M⁻¹ s⁻¹.

B3: SgfSL (SgfSLwt) (Streptomyces griseoflavus; M199G) (protein)
chain: AGAAPAGGEVRRVTMYAERLAGGQMGYGLEKGKASIPGPLIELNEGDTLHVEFENTMDVPVSLHVHGLDYEISSDGTKQNKSHVEPGGTRTYTWRTHEPGRRADGTWRAGSAGYWHYHDHVVGTEHGTGGIRNGLYGPVIVRRKGDVLPDATHTIVFNDGTINNRPAHTGPNFEATVGDRVEIVMITHGEYYHTFHMHGHRWADNRTGMLTGPDDPSQVIDNKICGPADSFGFQIIAGEGVGAGAWMYHCHVQSHSDMGMVGLFLVKKPDGTIPGYDPQEHAH
notes: as for B1
Consider B3, for which, in “purified protein [1]” (pH 8.0, 30 °C), the Km stood at 670 ± 120 µM, the kcat worked out at 3.39 ± 0.17 s⁻¹ and the kcat/Km worked out at 5070 M⁻¹ s⁻¹. For the same protein, in the series “purified protein [2]” (pH 4.0, 30 °C), the Km is 200 ± 60 µM, the catalytic constant (kcat) was 45 ± 7 s⁻¹ and the kcat/Km was determined as 226000 M⁻¹ s⁻¹.

B4: SgfSL (SgfSLwt) (Streptomyces griseoflavus; Y230A) (protein)
chain: AGAAPAGGEVRRVTMYAERLAGGQMGYGLEKGKASIPGPLIELNEGDTLHVEFENTMDVPVSLHVHGLDYEISSDGTKQNKSHVEPGGTRTYTWRTHEPGRRADGTWRAGSAGYWHYHDHVVGTEHGTGGIRNGLYGPVIVRRKGDVLPDATHTIVFNDMTINNRPAHTGPNFEATVGDRVEIVMITHGEAYHTFHMHGHRWADNRTGMLTGPDDPSQVIDNKICGPADSFGFQIIAGEGVGAGAWMYHCHVQSHSDMGMVGLFLVKKPDGTIPGYDPQEHAH
notes: as for B1
On to B4, for which, in the series “purified protein [1]” (pH 8.5, 30 °C), the Km came out at 760 ± 30 µM, the kcat stood at 1.68 ± 0.07 s⁻¹ and the kcat/Km was found to be 2220 M⁻¹ s⁻¹. For the same protein, in the series “purified protein [2]” (pH 3.5, 30 °C), the Michaelis-Menten constant (Km) is 170 ± 40 µM, the kcat was determined as 29 ± 3 s⁻¹ and the kcat/Km is 169000 M⁻¹ s⁻¹.

B5: SgfSL (SgfSLwt) (Streptomyces griseoflavus; M199A) (protein)
chain: AGAAPAGGEVRRVTMYAERLAGGQMGYGLEKGKASIPGPLIELNEGDTLHVEFENTMDVPVSLHVHGLDYEISSDGTKQNKSHVEPGGTRTYTWRTHEPGRRADGTWRAGSAGYWHYHDHVVGTEHGTGGIRNGLYGPVIVRRKGDVLPDATHTIVFNDATINNRPAHTGPNFEATVGDRVEIVMITHGEYYHTFHMHGHRWADNRTGMLTGPDDPSQVIDNKICGPADSFGFQIIAGEGVGAGAWMYHCHVQSHSDMGMVGLFLVKKPDGTIPGYDPQEHAH
notes: as for B1
For B5, in the series “purified protein [1]” (pH 8.0, 30 °C), the Km stood at 830 ± 80 µM, the kcat worked out at 1.3 ± 0.05 s⁻¹ and the kcat/Km was determined as 1550 M⁻¹ s⁻¹. Further, in the series “purified protein [2]” (pH 4.0, 30 °C), the Km was found to be 320 ± 50 µM, the kcat turned out to be 33 ± 2 s⁻¹ and the kcat/Km was 102000 M⁻¹ s⁻¹.

B6: SgfSL (SgfSLwt) (Streptomyces griseoflavus; M199G/R240H) (protein)
chain: AGAAPAGGEVRRVTMYAERLAGGQMGYGLEKGKASIPGPLIELNEGDTLHVEFENTMDVPVSLHVHGLDYEISSDGTKQNKSHVEPGGTRTYTWRTHEPGRRADGTWRAGSAGYWHYHDHVVGTEHGTGGIRNGLYGPVIVRRKGDVLPDATHTIVFNDGTINNRPAHTGPNFEATVGDRVEIVMITHGEYYHTFHMHGHHWADNRTGMLTGPDDPSQVIDNKICGPADSFGFQIIAGEGVGAGAWMYHCHVQSHSDMGMVGLFLVKKPDGTIPGYDPQEHAH
notes: as for B1
Turning to B6, in the series “purified protein [1]” (pH 8.5, 30 °C), the Km was 250 ± 20 µM, the kcat came out at 4.18 ± 0.09 s⁻¹ and the kcat/Km is 16500 M⁻¹ s⁻¹. In addition, in the series “purified protein [2]” (pH 3.5, 30 °C), the Km stood at 100 ± 15 µM, the kcat worked out at 20 ± 1 s⁻¹ and the kcat/Km stood at 203000 M⁻¹ s⁻¹.
